Reference: patent JP2007300927A (dated 2007)
Residue numbers refer to the chain shown, from its start. Names may count otherwise.

T1: GC-3 (human, UniProt P51654 524-563)
T1 construct: also called GST融合タンパク質GC-3(Ala524からLys563); not shown: GST (glutathione S-transferase) of vector pGEX-4T-3 (Amersham), N-terminal to the GPC3 piece
T1 chain: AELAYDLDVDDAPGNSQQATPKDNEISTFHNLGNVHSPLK

T2: GC-1 (human, UniProt P51654 495-563)
T2 construct: Made in E. coli DH5α, purified on glutathione resin; also called GST融合タンパク質GC-1(Ser495からLys563); not shown: GST (glutathione S-transferase) of vector pGEX-4T-3 (Amersham), N-terminal to the GPC3 piece
T2 sequence: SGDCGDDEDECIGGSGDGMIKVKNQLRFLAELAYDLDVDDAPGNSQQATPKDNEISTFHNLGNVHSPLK

T3: GC-2 (human, UniProt P51654 510-563)
T3 construct: also called GST融合タンパク質GC-2(Gly510からLys563); not shown: GST (glutathione S-transferase) of vector pGEX-4T-3 (Amersham), N-terminal to the GPC3 piece
T3 sequence: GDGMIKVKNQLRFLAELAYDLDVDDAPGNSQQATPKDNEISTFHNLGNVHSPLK

B1: M5B9 (antibody, V domains shown)
VH: EVQLQQSGTVLARPGASVKMSCKASGYTFTGYWMHWVKQRPGQGLEWIGAIYPGNSDTNYNQKFKGKAKLTAVTSASTAYMELSSLTNEDAAVYHCTRSGDLTGGLAYWGQGTLVTVSA
VL: DIVMTQAAFSNPVTLGTSASISCRSSKSLLHSNGITYLYWFLQKPGQSPQLLIYQMSNLASGVPDRFSSSGSGTDFTLRISRVEAEDVGVYYCAQNLELPYTFGSGTKLEIK
notes: Mouse hybridoma antibody
B2: ヒト化GC33 H鎖ver.k / L鎖ver.a (antibody, human IgG1, V domains shown)
VH: QVQLVQSGAEVKKPGASVKVSCKASGYTFTDYEMHWVRQAPGQGLEWMGALDPKTGDTAYSQKFKGRVTLTADKSTSTAYMELSSLTSEDTAVYYCTRFYSYTYWGQGTLVTVSS
VL: DVVMTQSPLSLPVTPGEPASISCRSSQSLVHSNGNTYLHWYLQKPGQSPQLLIYKVSNRFSGVPDRFSGSGSGTDFTLKISRVEAEDVGVYYCSQNTHVPPTFGQGTKLEIK
notes: Human IgG1 / κ constant regions; also called GC33 VH ver.k
B3: GC33 ver.a / mouse (antibody, human IgG1, V domains shown)
VH: B2 VH with Q6E, L70I, K74E, T87R, T97A
VL: B2 VL with S7T, T14S, P15L, E17D, P18Q, Q50K, V88L, Y92F, Q105S
notes: Humanised H chain variable region ver.a combined with the mouse GC33 L chain variable region; human IgG1 / κ constant regions; also called H鎖 ver.a / L鎖 マウスGC33
B4: ヒト化GC33(ver.a / ver.a) (antibody, V domains shown)
VH: B2 VH with Q6E, L70I, K74E, T87R, T97A
VL: B2 VL
notes: Human IgG1 / human κ constant regions (HEFgγ1, HEFgκ); also called GC33 VH ver.a / GC33 VL ver.a
B5: ヒト化GC33 H鎖ver.i / L鎖ver.a (antibody, human IgG1, V domains shown)
VH: B2 VH with K74E, T87R
VL: B2 VL
notes: Human IgG1 / κ constant regions; also called GC33 VH ver.i
B6: ヒト化GC33 H鎖ver.h / L鎖ver.a (antibody, human IgG1, V domains shown)
VH: B2 VH with Q6E
VL: B2 VL
notes: Human IgG1 / κ constant regions; also called GC33 VH ver.h
B7: ヒト化GC33 H鎖ver.j / L鎖ver.a (antibody, human IgG1, V domains shown)
VH: B2 VH with T87R
VL: B2 VL
notes: Human IgG1 / κ constant regions; also called GC33 VH ver.j
B8: ヒト化GC33 H鎖ver.c / L鎖ver.a (antibody, human IgG1, V domains shown)
VH: B2 VH with Q6E, K74E, T87R
VL: B2 VL
notes: Human IgG1 / κ constant regions; also called GC33 VH ver.c
B9: ヒト化GC33 H鎖ver.f / L鎖ver.a (antibody, human IgG1, V domains shown)
VH: B2 VH with Q6E, T87R
VL: B2 VL
notes: Human IgG1 / κ constant regions; also called GC33 VH ver.f
B10: 改変抗体G34Q (antibody, human IgG1, V domains shown)
VH: B2 VH
VL: B2 VL with G34Q
notes: As G34A: H chain ver.k by 'the method above'; human IgG1/κ; COS7 supernatant
B11: 改変抗体G34I (antibody, human IgG1, V domains shown)
VH: B2 VH
VL: B2 VL with G34I
notes: as for B10
B12: 改変抗体G34D (antibody, human IgG1, V domains shown)
VH: B2 VH
VL: B2 VL with G34D
notes: as for B10
B13: 改変抗体G34H (antibody, human IgG1, V domains shown)
VH: B2 VH
VL: B2 VL with G34H
notes: as for B10
B14: 改変抗体G34W (antibody, human IgG1, V domains shown)
VH: B2 VH
VL: B2 VL with G34W
notes: as for B10
B15: Asn33をAspに置換した改変抗体(N33D) (antibody, human IgG1, V domains shown)
VH: B2 VH
VL: B2 VL with N33D
notes: Humanised GC33 H chain ver.k (HEFgγ1, human IgG1) with L chain ver.a N33D (HEFgκ, human κ), expressed transiently in COS7; culture supernatant used
B16: 改変抗体G34R (antibody, human IgG1, V domains shown)
VH: B2 VH
VL: B2 VL with G34R
notes: as for B10
B17: 改変抗体G34Y (antibody, human IgG1, V domains shown)
VH: B2 VH
VL: B2 VL with G34Y
notes: as for B10
B18: 改変抗体G34E (antibody, human IgG1, V domains shown)
VH: B2 VH
VL: B2 VL with G34E
notes: as for B10
B19: 改変抗体G34A (antibody, human IgG1, V domains shown)
VH: B2 VH
VL: B2 VL with G34A
notes: Humanised GC33 L chain ver.a variant; human IgG1/κ; COS7 culture supernatant
B20: 改変抗体G34S (antibody, human IgG1, V domains shown)
VH: B2 VH
VL: B2 VL with G34S
notes: as for B10
B21: 改変抗体G34K (antibody, human IgG1, V domains shown)
VH: B2 VH
VL: B2 VL with G34K
notes: as for B10
B22: 改変抗体G34F (antibody, human IgG1, V domains shown)
VH: B2 VH
VL: B2 VL with G34F
notes: as for B10
B23: 改変抗体G34T (antibody, human IgG1, V domains shown)
VH: B2 VH
VL: B2 VL with G34T
notes: as for B10
B24: 改変抗体G34L (antibody, human IgG1, V domains shown)
VH: B2 VH
VL: B2 VL with G34L
notes: as for B10
B25: 改変抗体G34N (antibody, human IgG1, V domains shown)
VH: B2 VH
VL: B2 VL with G34N
notes: as for B10
B26: GC179 (antibody, V domains shown)
VH: EVQLVETGGGLVQPEGSLKLSCAASGFSFNINAMNWVRQAPGKGLEWVARIRSESNNYATYYGDSVKDRFTISRDDSQNMLYLQMNNLKTEDTAIYYCVREVTTSFAYWGQGTLVTVSA
VL: DIVMTQSAPSVPVTPGESVSISCKSSKSLLHSNGNTYLNWFLQRPGQSPQLLIYWMSNLASGVPDRFSGSGSGTAFTLRISRVEAEDVGVYYCMQHIEYPFTFGTGTKLEIK
notes: Mouse hybridoma antibody from GC-3 immunisation
B27: GC199 (antibody, V domains shown)
VH: QIQLEQSGPELKKPGETVKISCKASGYIFRDYSMHWVKQAPGKGLKWMGWINTETGEPTYADDFKGRFAFSLETSASTAYLQINNLKNEDTATYFCTSLYWGQGTLVTVSA
VL: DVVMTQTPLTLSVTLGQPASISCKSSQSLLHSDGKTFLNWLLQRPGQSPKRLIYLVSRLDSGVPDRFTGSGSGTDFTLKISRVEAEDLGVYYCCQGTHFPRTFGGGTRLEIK
notes: Mouse hybridoma antibody from GC-3 immunisation; also called GC199抗体
B28: GC33 (antibody, V domains shown)
VH: QVQLQQSGAELVRPGASVKLSCKASGYTFTDYEMHWVKQTPVHGLKWIGALDPKTGDTAYSQKFKGKATLTADKSSSTAYMELRSLTSEDSAVYYCTRFYSYTYWGQGTLVTVSA
VL: B2 VL with S7T, T14S, P15L, E17D, P18Q, Q50K, V88L, Y92F, Q105S
notes: also called GC33抗体
B29: L9G11 (antibody, V domains shown)
VH: QVQLQQPGAELVKPGASVKLSCKASGYTFTSYWMHWVKQRPGQGLEWIGTIDPSDSETHYNLQFKDTATLTVDKSSSTAYMQLSSLTSEDSAVYYCIRGAFYSSYSYWAWFAYWGQGTLVTVSA
VL: DIVLTQSPTSLAVSLGQSVTISCRASESVEYYGTSLMQWYQQKPGQPPKLLIYGASNVESGVPARFSGSGSGTDFSLNIHPVEEDDIAMYFCQQSRKVPYTFGSGTKLEIK
notes: Mouse hybridoma antibody
B30: M13B3 (antibody, V domains shown)
VH: EVHLVESGGGLVKPGGSLKLSCAASGFTFSNYAMSWVRQTPEKRLEWVAAINNNGDDTYYLDTVKDRFTISRDNAKNTLYLQMSSLRSEDTALYYCVRQGGAYWGQGTLVTVSA
VL: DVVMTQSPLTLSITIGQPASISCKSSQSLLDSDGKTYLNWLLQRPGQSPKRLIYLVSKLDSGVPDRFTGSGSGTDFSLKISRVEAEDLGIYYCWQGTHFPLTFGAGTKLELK
notes: Mouse hybridoma antibody
B31: M6B1 (antibody, V domains shown)
VH: EVQLVESGGDLVKPGGSLKLSCAASGFTFSSYAMSWVRQTPEKRLEWVAAINSNGGTTYYPDTMKDRFTISRDNAKNTLYLQMSSLRSEDSALYYCTRHNGGYENYGWFAYWGQGTLVTVSA
VL: DIQMTQSPSSLSASLGGKVTITCKASQDINKNIIWYQHKPGKGPRLLIWYTSTLQPGIPSRFSGSGSGRDYSFSISNLEPEDIATYYCLQYDNLPRTFGGGTKLEIK
notes: Mouse hybridoma antibody

These binders were tested against T4, 可溶型GPC3コアタンパク質 (human, UniProt P51654 25-563) (assay: ELISA screening of hybridoma supernatant on immobilised soluble GPC3 core protein).
T4 construct: also called 可溶型GPC3コア蛋白質; soluble GPC3 core protein; not shown: C-terminal His tag

Binder	binding result
B1	binds

Each binder was assayed against T4, 可溶型GPC3コアタンパク質 (assay: ELISA on GPC3 (Fig. 15)).
Target sequence in this assay (P51654 25-563 S495A/S509A): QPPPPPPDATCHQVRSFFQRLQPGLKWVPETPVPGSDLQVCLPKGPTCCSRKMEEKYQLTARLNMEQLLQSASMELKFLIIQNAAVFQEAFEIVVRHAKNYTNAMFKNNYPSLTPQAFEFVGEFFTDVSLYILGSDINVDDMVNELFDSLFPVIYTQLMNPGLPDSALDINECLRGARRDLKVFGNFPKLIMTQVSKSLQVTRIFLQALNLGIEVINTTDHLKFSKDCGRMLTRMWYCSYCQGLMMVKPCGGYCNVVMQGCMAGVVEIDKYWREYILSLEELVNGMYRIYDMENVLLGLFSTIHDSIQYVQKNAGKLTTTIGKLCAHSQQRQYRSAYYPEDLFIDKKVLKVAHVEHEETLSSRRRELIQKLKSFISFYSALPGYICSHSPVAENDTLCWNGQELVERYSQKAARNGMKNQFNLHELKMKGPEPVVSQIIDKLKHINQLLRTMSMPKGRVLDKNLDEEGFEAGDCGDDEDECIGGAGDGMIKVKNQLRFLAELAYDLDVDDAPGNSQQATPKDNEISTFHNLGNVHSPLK

Binder	binding result
B2	binds
B3	binds
B4	binds
B5	binds
B6	binds
B7	binds
B8	binds
B9	binds

These binders were tested against T4, 可溶型GPC3コアタンパク質 (assay: ELISA on immobilised soluble GPC3 core protein, COS7 supernatant).
Target sequence in this assay (P51654 25-563 S495A/S509A): as above

Binder	binding result
B10	binds
B11	binds
B12	binds
B13	binds
B14	binds
B15	no binding
B16	binds
B17	binds
B18	binds
B19	binds
B20	binds
B21	binds
B22	binds
B23	binds
B24	binds
B25	binds

What follows are binders tested against T4, 可溶型GPC3コアタンパク質 (assay: ELISA screening on immobilised soluble GPC3 core protein).

Binder	binding result
B26	binds
B27	binds
B28	binds

These binders were tested against T4, 可溶型GPC3コアタンパク質 (assay: ELISA, purified antibody from 10 μg/mL in 3-fold steps on immobilised soluble GPC3 core protein).
Target sequence in this assay (P51654 25-563 S495A/S509A): as above

Binder	binding result
B29	binds
B30	binds
B31	binds

Target: T1, GC-3
Assay: Western blot of GST fusion proteins

Binder	binding result
B26	binds
B27	binds
B28	binds

The binders below were run against T2, GC-1 (assay: Western blot of GST fusion proteins).

Binder	binding result
B26	binds
B27	binds
B28	binds

These binders were tested against T3, GC-2 (assay: Western blot of GST fusion proteins).

Binder	binding result
B26	binds
B27	binds
B28	binds
